Data set [1] deals with T1, HA-tagged human IgG1 Fc portion with CH3 mutations E345R, Q347R, T366V, K409V.
T1 chain: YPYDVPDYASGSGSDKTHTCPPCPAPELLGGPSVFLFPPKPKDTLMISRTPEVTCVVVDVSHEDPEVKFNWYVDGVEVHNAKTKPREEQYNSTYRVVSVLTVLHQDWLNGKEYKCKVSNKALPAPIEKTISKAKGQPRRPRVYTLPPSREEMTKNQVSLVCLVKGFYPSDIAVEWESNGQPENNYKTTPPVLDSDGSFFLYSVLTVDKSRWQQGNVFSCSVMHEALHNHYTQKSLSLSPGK
Nature of the data set: UPLC SEC of protein G-purified one-arm antibody co-expressed in HEK293F.

In data set [2] the target is T2, HA-tagged human IgG1 Fc portion with CH3 mutations K360D, D399M, Y407A.
T2 chain: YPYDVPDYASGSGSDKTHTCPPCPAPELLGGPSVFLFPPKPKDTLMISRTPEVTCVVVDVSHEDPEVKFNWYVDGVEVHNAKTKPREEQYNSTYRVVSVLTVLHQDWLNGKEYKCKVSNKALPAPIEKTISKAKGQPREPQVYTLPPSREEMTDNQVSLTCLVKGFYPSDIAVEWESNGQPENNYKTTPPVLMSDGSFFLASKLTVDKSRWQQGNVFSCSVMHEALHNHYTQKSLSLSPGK
The data set is described as above.

In data set [3] the target is matuzumab HC_7.8_B + matuzumab LC (IgG1). Nature of the data set: LCMS, IgG1 BsAb co-expression; HCA/HCB heterodimer carrying two LC1.
Data set [4] has as its target BHA10 HC_7.8_B + BHA10 LC (IgG1). The description is as above.
Data set [5] addresses matuzumab HC_7.8_B + matuzumab LC (IgG1). Kind of data set: LCMS, IgG1 BsAb co-expression in HEK293F.
Data set [6] addresses BHA10 HC_7.8_B + BHA10 LC (IgG1). Kind of data set: LCMS, IgG1 BsAb co-expression in HEK293F.
Data set [7] addresses matuzumab HC_7.8_B + matuzumab LC (IgG1). Kind of data set: LCMS, IgG1 BsAb co-expression; HCA/HCB heterodimer carrying two LC2.
In data set [8] the target is BHA10 HC_7.8_B + BHA10 LC (IgG1). Described as above.
Data set [9] can be described thus: LCMS, IgG1 BsAb co-expression; HCA homodimer species.
The target in data set [10] is matuzumab HC_7.8.60_B + matuzumab LC (IgG1). Kind of data set: LCMS, IgG1 BsAb co-expression; HCA/HCB heterodimer carrying two LC1.
Data set [11] concerns the target BHA10 HC_7.8.60_B + BHA10 LC (IgG1). Described as above.
Data set [12] has as its target matuzumab HC_7.8.60_B + matuzumab LC (IgG1). Kind of data set: LCMS, IgG1 BsAb co-expression in HEK293F.
The target in data set [13] is BHA10 HC_7.8.60_B + BHA10 LC (IgG1). Nature of the data set: LCMS, IgG1 BsAb co-expression in HEK293F.
Data set [14] deals with matuzumab HC_7.8.60_B + matuzumab LC (IgG1). Kind of data set: LCMS, IgG1 BsAb co-expression; HCA/HCB heterodimer carrying two LC2.
Data set [15] addresses BHA10 HC_7.8.60_B + BHA10 LC (IgG1). The data set is described as above.
Where [16] appears, read: pertuzumab × matuzumab bispecific.

B1: anti-c-Met 5D5 VH-human IgG1 HC with CH3 mutations K360D, D399M, Y407A, with 5D5 light chain (protein)
chain 1: EVQLVESGGGLVQPGGSLRLSCAASGYTFTSYWLHWVRQAPGKGLEWVGMIDPSNSDTRFNPNFKDRFTISADTSKNTAYLQMNSLRAEDTAVYYCATYRSYVTPLDYWGQGTLVTVSSASTKGPSVFPLAPSSKSTSGGTAALGCLVKDYFPEPVTVSWNSGALTSGVHTFPAVLQSSGLYSLSSVVTVPSSSLGTQTYICNVNHKPSNTKVDKRVEPKSCDKTHTCPPCPAPELLGGPSVFLFPPKPKDTLMISRTPEVTCVVVDVSHEDPEVKFNWYVDGVEVHNAKTKPREEQYNSTYRVVSVLTVLHQDWLNGKEYKCKVSNKALPAPIEKTISKAKGQPREPQVYTLPPSREEMTDNQVSLTCLVKGFYPSDIAVEWESNGQPENNYKTTPPVLMSDGSFFLASKLTVDKSRWQQGNVFSCSVMHEALHNHYTQKSLSLSPGK
chain 2: DIQMTQSPSSLSASVGDRVTITCKSSQSLLYTSSQKNYLAWYQQKPGKAPKLLIYWASTRESGVPSRFSGSGSGTDFTLTISSLQPEDFATYYCQQYYAYPWTFGQGTKVEIKRTVAAPSVFIFPPSDEQLKSGTASVVCLLNNFYPREAKVQWKVDNALQSGNSQESVTEQDSKDSTYSLSSTLTLSKADYEKHKVYACEVTHQGLSSPVTKSFNRGEC
As to B1, the % heterodimer (UPLC) in data set [1] stood at 93%.

B2: anti-c-Met 5D5 VH-human IgG1 HC with CH3 mutations E345R, Q347R, T366V, K409V, with 5D5 light chain (protein)
chain 1: EVQLVESGGGLVQPGGSLRLSCAASGYTFTSYWLHWVRQAPGKGLEWVGMIDPSNSDTRFNPNFKDRFTISADTSKNTAYLQMNSLRAEDTAVYYCATYRSYVTPLDYWGQGTLVTVSSASTKGPSVFPLAPSSKSTSGGTAALGCLVKDYFPEPVTVSWNSGALTSGVHTFPAVLQSSGLYSLSSVVTVPSSSLGTQTYICNVNHKPSNTKVDKRVEPKSCDKTHTCPPCPAPELLGGPSVFLFPPKPKDTLMISRTPEVTCVVVDVSHEDPEVKFNWYVDGVEVHNAKTKPREEQYNSTYRVVSVLTVLHQDWLNGKEYKCKVSNKALPAPIEKTISKAKGQPRRPRVYTLPPSREEMTKNQVSLVCLVKGFYPSDIAVEWESNGQPENNYKTTPPVLDSDGSFFLYSVLTVDKSRWQQGNVFSCSVMHEALHNHYTQKSLSLSPGK
chain 2: DIQMTQSPSSLSASVGDRVTITCKSSQSLLYTSSQKNYLAWYQQKPGKAPKLLIYWASTRESGVPSRFSGSGSGTDFTLTISSLQPEDFATYYCQQYYAYPWTFGQGTKVEIKRTVAAPSVFIFPPSDEQLKSGTASVVCLLNNFYPREAKVQWKVDNALQSGNSQESVTEQDSKDSTYSLSSTLTLSKADYEKHKVYACEVTHQGLSSPVTKSFNRGEC
In data set [2], B2 registered a % heterodimer (UPLC) of 93.3%.

B3: pertuzumab HC_7.8_A + pertuzumab LC (IgG1) (protein)
chain 1: EVQLVESGGGLVQPGGSLRLSCAASGFTFTDYTMDWVRKAPGKGLEWVADVNPNSGGSIYNQEFKGRFTLSVDRSKNTLYLQMNSLRAEDTAVYYCARNLGPSFYFDYWGQGTLVTVSSASTKGPSVFPLAPSSKSTSGGTAALGCLVKDYFPEPVTVSWNSGALTSGVATGPAVLQSSGLYSLSSVVTVPSSSLGTQTYICNVNHKPSNTKVDKKVEPKSCDKTHTCPPCPAPELLGGPSVFLFPPKPKDTLMISRTPEVTCVVVDVSHEDPEVKFNWYVDGVEVHNAKTKPREEQYQSTYRVVSVLTVLHQDWLNGKEYKCKVSNKALPAPIEKTISKAKGQPREPQVYTLPPSREEMTKNQVSLTCLVKGFYPSDIAVEWESNGQPENNYKTTPPVLMSDGSFFLASKLTVDKSRWQQGNVFSCSVMHEALHNHYTQKSLSLSPGK
chain 2: RIQMTQSPSSLSASVGDRVTITCKASQDVSIGVAWYQDKPGKAPKLLIYSASYRYTGVPSRFSGSGSGTDFTLTISSLQPEDFATYYCQQYYIYPYTFGQGTKVEIKGQPKAAPSVTLFPPSSEELQANKATLVCYISDFYPGAVTVAWKADSSPVKAGVETTTPSKQSNNKYAAWSYLSLTPEQWKSHRSYSCQVTHEGSTVEKTVAPTEC
With B3, the % AB (2x LC1) (incorrect assembly) came out at 0% in [3] and 15.6% in [4]. The % AB (LC1/LC2) (correct IgG BsAb assembly) in data set [5] was 95.4%; in data set [6], 69.3%. The % AB (2x LC2) (incorrect assembly) turned out to be 1.2% in [7] and 0% in data set [8]. The results for the % AA Homodimer (incorrect assembly) in [9] (pertuzumab × BHA10 bispecific) and in data set [9] (setting [16]) were 0% and 0.5%, respectively.

B4: pertuzumab HC_7.8.60_A + pertuzumab LC (IgG1) (protein)
chain 1: EVQLVESGGGLVQPGGSLRLSCAASGFTFTDYTMDWVRKAPGKGLEWVADVNPNSGGSIYNQEFKGRFTLSVDRSKNTLYLQMNSLRAEDTAVYYCARNLGPSFYFDYWGQGTLVTVSSASTKGPSVFPLAPSSKSTSGGTAALGCLVKDYFPEPVTVSWNSGALTSGVATGPAVLQSSGLYSLSSVVTVPSSSLGTQTYICNVNHKPSNTKVDKKVEPKSCDKTHTCPPCPAPELLGGPSVFLFPPKPKDTLMISRTPEVTCVVVDVSHEDPEVKFNWYVDGVEVHNAKTKPREEQYQSTYRVVSVLTVLHQDWLNGKEYKCKVSNKALPAPIEKTISKAKGQPREPQVYTLPPSREEMTDNQVSLTCLVKGFYPSDIAVEWESNGQPENNYKTTPPVLMSDGSFFLASKLTVDKSRWQQGNVFSCSVMHEALHNHYTQKSLSLSPGK
chain 2: RIQMTQSPSSLSASVGDRVTITCKASQDVSIGVAWYQDKPGKAPKLLIYSASYRYTGVPSRFSGSGSGTDFTLTISSLQPEDFATYYCQQYYIYPYTFGQGTKVEIKGQPKAAPSVTLFPPSSEELQANKATLVCYISDFYPGAVTVAWKADSSPVKAGVETTTPSKQSNNKYAAWSYLSLTPEQWKSHRSYSCQVTHEGSTVEKTVAPTEC
On to B4, for which the % AB (2x LC1) (incorrect assembly) in [10] and in [11] was 0% each time. In addition, the % AB (LC1/LC2) (correct IgG BsAb assembly) in data set [12] amounted to 98.1%; in data set [13], 95.2%. Besides, the values for the % AB (2x LC2) (incorrect assembly) in [14] and in data set [15] were 0% and 2.5%, respectively. The results for the % AA Homodimer (incorrect assembly) in [9] (pertuzumab × BHA10 bispecific) and in data set [9] (setting [16]) were 0.7% and 0.6%, respectively.
